Experimental findings from US20240358847A1 (Merck Sharp & Dohme, published 2024) are described below.

Experiment [1] has as its target T1, TROP2 on BxPC-3 and MDA-MB-231-KWL cells (human, UniProt P09758 27-323).
T1 construct: whole, on cells
T1 sequence (looked up): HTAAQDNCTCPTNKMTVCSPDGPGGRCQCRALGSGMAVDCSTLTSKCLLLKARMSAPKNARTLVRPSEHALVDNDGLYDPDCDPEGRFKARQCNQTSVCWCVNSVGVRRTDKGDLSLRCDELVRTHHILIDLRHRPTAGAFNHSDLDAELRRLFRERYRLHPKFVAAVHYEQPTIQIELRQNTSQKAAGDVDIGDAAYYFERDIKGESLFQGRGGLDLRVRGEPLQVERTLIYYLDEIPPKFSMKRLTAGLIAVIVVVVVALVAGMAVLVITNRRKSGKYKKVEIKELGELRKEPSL
The experiment can be described thus: on-cell ELISA, BxPC-3 cells (TROP2 high). On the set-up: unit not given beside the values. On the procedure: (§1) Cells were plated in duplicate onto 96-well plates, and primary antibody was diluted in cell culture medium with a starting concentration of 30 μg/mL (200 nM) with a dilution factor of 1:5. […] Data was plotted and analyzed. EC50 ([…]) was measured along with area under the curve (AUC) for each cell line.
(An ELISA detects its analyte on a solid surface through an enzyme-linked reagent.)

For experiment [2], the target named is T1, TROP2 on BxPC-3 and MDA-MB-231-KWL cells. Nature of the experiment: on-cell ELISA, BxPC-3 vs MDA-MB-231-KWL cells. On the procedure: as §1
The target is the same in experiment [3]. The experiment can be described thus: on-cell ELISA, MDA-MB-231-KWL cells (TROP2 low). On the set-up: unit not given beside the values. How it is done: as §1

B1: Sacituzumab (antibody, human IgG1, kappa, V domains shown)
VH: QVQLQQSGSELKKPGASVKVSCKASGYTFTNYGMNWVKQAPGQGLKWMGWINTYTGEPTYTDDFKGRFAFSLDTSVSTAYLQISSLKADDTAVYFCARGGFGSSYWYFDVWGQGSLVTVSS
VL: DIQLTQSPSSLSASVGDRVSITCKASQDVSIAVAWYQQKPGKAPKLLIYSASYRYTGVPDRFSGSGSGTDFTLTISSLQPEDFAVYYCQQHYITPLTFGAGTKVEIKR
notes: also called mAb (parental)
Turning to B1, the “AUC (BxPC-3)” value in experiment [1] amounted to 318. This molecule displayed a ΔAUC in experiment [2] of 70.1. In experiment [3], the “AUC (MDA-MB-231-KWL)” value amounted to 248.

B2: mAb_LC_Hm_S104D (antibody, human IgG1, kappa)
heavy: not shown
light: DIQLTQSPSSLSASVGDRVSITCKASQDVSIAVAWYQQKPGKAPKLLIYSASYRYTGVPDRFSGSGSGTDFTLTISSLQPEDFAVYYCQQHYITPLTFGAGTKVEIKRTVAAPSVFIFPPSDEQLKSGTASVVCLLNNFYPREAKVQWKVDNALQSGNSQESVTEQDSKDSTYSLSSTLTLSKADYEKHKVYACEVTHQGLSSPVTKSFNRGEC
For the molecule B2, the “AUC (BxPC-3)” value in experiment [1] was 285. Besides, the ΔAUC in experiment [2] is 178.

B3: mAb_LC_Hm_F108S (antibody, human IgG1, kappa)
heavy: not shown
light: DIQLTQSPSSLSASVGDRVSITCKASQDVSIAVAWYQQKPGKAPKLLIYSASYRYTGVPDRFSGSGSGTDFTLTISSLQPEDFAVYYCQQHYITPLTFGAGTKVEIKRTVAAPSVFIFPPSDEQLKSGTASVVCLLNNFYPREAKVQWKVDNALQSGNSQESVTEQDSKDSTYSLSSTLTLSKADYEKHKVYACEVTHQGLSSPVTKSFNRGEC
Take B3: the “AUC (BxPC-3)” value in experiment [1] amounted to 303. The same molecule yielded a ΔAUC in experiment [2] of 76.1. For the same molecule, in experiment [3], the “AUC (MDA-MB-231-KWL)” value is 227.

B4: mAb_Lm_V29R_HC (antibody, human IgG1, kappa)
heavy: not shown
light: DIQLTQSPSSLSASVGDRVSITCKASQDRSIAVAWYQQKPGKAPKLLIYSASYRYTGVPDRFSGSGSGTDFTLTISSLQPEDFAVYYCQQHYITPLTFGAGTKVEIKRTVAAPSVFIFPPSDEQLKSGTASVVCLLNNFYPREAKVQWKVDNALQSGNSQESVTEQDSKDSTYSLSSTLTLSKADYEKHKVYACEVTHQGLSSPVTKSFNRGEC
Regarding B4, the “AUC (BxPC-3)” value in experiment [1] was 291. In experiment [2], this molecule came in with a ΔAUC of 80.5.

B5: mAb_LC_Hm_G33P (antibody, human IgG1, kappa)
heavy: not shown
light: DIQLTQSPSSLSASVGDRVSITCKASQDVSIAVAWYQQKPGKAPKLLIYSASYRYTGVPDRFSGSGSGTDFTLTISSLQPEDFAVYYCQQHYITPLTFGAGTKVEIKRTVAAPSVFIFPPSDEQLKSGTASVVCLLNNFYPREAKVQWKVDNALQSGNSQESVTEQDSKDSTYSLSSTLTLSKADYEKHKVYACEVTHQGLSSPVTKSFNRGEC
On to B5, for which the “AUC (BxPC-3)” value in experiment [1] amounted to 142. Also, the ΔAUC in experiment [2] is 134. Also, the “AUC (MDA-MB-231-KWL)” value in experiment [3] stood at 7.7.

B6: mAb_Lm_H91Y_HC (antibody, human IgG1, kappa)
heavy: not shown
light: DIQLTQSPSSLSASVGDRVSITCKASQDVSIAVAWYQQKPGKAPKLLIYSASYRYTGVPDRFSGSGSGTDFTLTISSLQPEDFAVYYCQQYYITPLTFGAGTKVEIKRTVAAPSVFIFPPSDEQLKSGTASVVCLLNNFYPREAKVQWKVDNALQSGNSQESVTEQDSKDSTYSLSSTLTLSKADYEKHKVYACEVTHQGLSSPVTKSFNRGEC
Consider B6, for which the “AUC (BxPC-3)” value in experiment [1] was found to be 184. Moreover, the “AUC (MDA-MB-231-KWL)” value in experiment [3] was 16.9.

B7: mAb_Lm_Y92N_HC (antibody, human IgG1, kappa)
heavy: not shown
light: DIQLTQSPSSLSASVGDRVSITCKASQDVSIAVAWYQQKPGKAPKLLIYSASYRYTGVPDRFSGSGSGTDFTLTISSLQPEDFAVYYCQQHNITPLTFGAGTKVEIKRTVAAPSVFIFPPSDEQLKSGTASVVCLLNNFYPREAKVQWKVDNALQSGNSQESVTEQDSKDSTYSLSSTLTLSKADYEKHKVYACEVTHQGLSSPVTKSFNRGEC
B7: the “AUC (BxPC-3)” value in experiment [1] turned out to be 226. For the same molecule, in experiment [2], the ΔAUC worked out at 181.

B8: mAb_LC_Hm_F101E (antibody, human IgG1, kappa)
heavy: not shown
light: DIQLTQSPSSLSASVGDRVSITCKASQDVSIAVAWYQQKPGKAPKLLIYSASYRYTGVPDRFSGSGSGTDFTLTISSLQPEDFAVYYCQQHYITPLTFGAGTKVEIKRTVAAPSVFIFPPSDEQLKSGTASVVCLLNNFYPREAKVQWKVDNALQSGNSQESVTEQDSKDSTYSLSSTLTLSKADYEKHKVYACEVTHQGLSSPVTKSFNRGEC
As for B8, the “AUC (BxPC-3)” value in experiment [1] turned out to be 300. In experiment [2], this molecule came in with a ΔAUC of 142. The “AUC (MDA-MB-231-KWL)” value in experiment [3] stood at 158.

B9: mAb_LC_Hm_F101T (antibody, human IgG1, kappa)
heavy: not shown
light: DIQLTQSPSSLSASVGDRVSITCKASQDVSIAVAWYQQKPGKAPKLLIYSASYRYTGVPDRFSGSGSGTDFTLTISSLQPEDFAVYYCQQHYITPLTFGAGTKVEIKRTVAAPSVFIFPPSDEQLKSGTASVVCLLNNFYPREAKVQWKVDNALQSGNSQESVTEQDSKDSTYSLSSTLTLSKADYEKHKVYACEVTHQGLSSPVTKSFNRGEC
As to B9, in experiment [1], the “AUC (BxPC-3)” value came to 314. Further, in experiment [2], the ΔAUC is 93.1. For the same molecule, the “AUC (MDA-MB-231-KWL)” value in experiment [3] is 221.

B10: mAb_Lm_Y53R_HC (antibody, human IgG1, kappa)
heavy: not shown
light: DIQLTQSPSSLSASVGDRVSITCKASQDVSIAVAWYQQKPGKAPKLLIYSASRRYTGVPDRFSGSGSGTDFTLTISSLQPEDFAVYYCQQHYITPLTFGAGTKVEIKRTVAAPSVFIFPPSDEQLKSGTASVVCLLNNFYPREAKVQWKVDNALQSGNSQESVTEQDSKDSTYSLSSTLTLSKADYEKHKVYACEVTHQGLSSPVTKSFNRGEC
In the case of B10, the “AUC (BxPC-3)” value in experiment [1] came to 323. In experiment [2], the ΔAUC came to 143.

B11: mAb_LC_Hm_F108Q (antibody, human IgG1, kappa)
heavy: not shown
light: DIQLTQSPSSLSASVGDRVSITCKASQDVSIAVAWYQQKPGKAPKLLIYSASYRYTGVPDRFSGSGSGTDFTLTISSLQPEDFAVYYCQQHYITPLTFGAGTKVEIKRTVAAPSVFIFPPSDEQLKSGTASVVCLLNNFYPREAKVQWKVDNALQSGNSQESVTEQDSKDSTYSLSSTLTLSKADYEKHKVYACEVTHQGLSSPVTKSFNRGEC
For B11, the “AUC (BxPC-3)” value in experiment [1] was found to be 324. In addition, the ΔAUC in experiment [2] amounted to 94.9. Also, the “AUC (MDA-MB-231-KWL)” value in experiment [3] was 230.

B12: mAb_Lm_Y53P_HC (antibody, human IgG1, kappa)
heavy: not shown
light: DIQLTQSPSSLSASVGDRVSITCKASQDVSIAVAWYQQKPGKAPKLLIYSASPRYTGVPDRFSGSGSGTDFTLTISSLQPEDFAVYYCQQHYITPLTFGAGTKVEIKRTVAAPSVFIFPPSDEQLKSGTASVVCLLNNFYPREAKVQWKVDNALQSGNSQESVTEQDSKDSTYSLSSTLTLSKADYEKHKVYACEVTHQGLSSPVTKSFNRGEC
notes: built from the Sacituzumab light chain with the named substitution
Take B12: the “AUC (BxPC-3)” value in experiment [1] is 304. The ΔAUC in experiment [2] amounted to 134.

B13: mAb_LC_Hm_F108T (antibody, human IgG1, kappa)
heavy: not shown
light: DIQLTQSPSSLSASVGDRVSITCKASQDVSIAVAWYQQKPGKAPKLLIYSASYRYTGVPDRFSGSGSGTDFTLTISSLQPEDFAVYYCQQHYITPLTFGAGTKVEIKRTVAAPSVFIFPPSDEQLKSGTASVVCLLNNFYPREAKVQWKVDNALQSGNSQESVTEQDSKDSTYSLSSTLTLSKADYEKHKVYACEVTHQGLSSPVTKSFNRGEC
In the case of B13, in experiment [1], the “AUC (BxPC-3)” value came out at 278. The molecule also returned a ΔAUC in experiment [2] of 71.4. Also, in experiment [3], the “AUC (MDA-MB-231-KWL)” value turned out to be 207.

B14: mAb_LC_Hm_F29G (antibody, human IgG1, kappa)
heavy: not shown
light: DIQLTQSPSSLSASVGDRVSITCKASQDVSIAVAWYQQKPGKAPKLLIYSASYRYTGVPDRFSGSGSGTDFTLTISSLQPEDFAVYYCQQHYITPLTFGAGTKVEIKRTVAAPSVFIFPPSDEQLKSGTASVVCLLNNFYPREAKVQWKVDNALQSGNSQESVTEQDSKDSTYSLSSTLTLSKADYEKHKVYACEVTHQGLSSPVTKSFNRGEC
In the case of B14, in experiment [1], the “AUC (BxPC-3)” value was determined as 291. Moreover, the ΔAUC in experiment [2] came to 71.9. In addition, the “AUC (MDA-MB-231-KWL)” value in experiment [3] was 219.

B15: mAb_LC_Hm_G33S (antibody, human IgG1, kappa)
heavy: not shown
light: DIQLTQSPSSLSASVGDRVSITCKASQDVSIAVAWYQQKPGKAPKLLIYSASYRYTGVPDRFSGSGSGTDFTLTISSLQPEDFAVYYCQQHYITPLTFGAGTKVEIKRTVAAPSVFIFPPSDEQLKSGTASVVCLLNNFYPREAKVQWKVDNALQSGNSQESVTEQDSKDSTYSLSSTLTLSKADYEKHKVYACEVTHQGLSSPVTKSFNRGEC
On to B15, for which the “AUC (BxPC-3)” value in experiment [1] turned out to be 281. Besides, the ΔAUC in experiment [2] amounted to 144. Moreover, in experiment [3], the “AUC (MDA-MB-231-KWL)” value is 137.

B16: mAb_LC_Hm_G33I (antibody, human IgG1, kappa)
heavy: not shown
light: DIQLTQSPSSLSASVGDRVSITCKASQDVSIAVAWYQQKPGKAPKLLIYSASYRYTGVPDRFSGSGSGTDFTLTISSLQPEDFAVYYCQQHYITPLTFGAGTKVEIKRTVAAPSVFIFPPSDEQLKSGTASVVCLLNNFYPREAKVQWKVDNALQSGNSQESVTEQDSKDSTYSLSSTLTLSKADYEKHKVYACEVTHQGLSSPVTKSFNRGEC
Turning to B16, the “AUC (BxPC-3)” value in experiment [1] worked out at 286. This molecule also gave a ΔAUC in experiment [2] of 156. Further, the “AUC (MDA-MB-231-KWL)” value in experiment [3] was determined as 129.

B17: mAb_LC_Hm_N31P (antibody, human IgG1, kappa)
heavy: not shown
light: DIQLTQSPSSLSASVGDRVSITCKASQDVSIAVAWYQQKPGKAPKLLIYSASYRYTGVPDRFSGSGSGTDFTLTISSLQPEDFAVYYCQQHYITPLTFGAGTKVEIKRTVAAPSVFIFPPSDEQLKSGTASVVCLLNNFYPREAKVQWKVDNALQSGNSQESVTEQDSKDSTYSLSSTLTLSKADYEKHKVYACEVTHQGLSSPVTKSFNRGEC
Take B17: the “AUC (BxPC-3)” value in experiment [1] came out at 289. Further, in experiment [2], the ΔAUC was found to be 116. Besides, in experiment [3], the “AUC (MDA-MB-231-KWL)” value was 173.
